Test results taken from patent US20110243928A1 (published 2011).

How the values were obtained:
[1] = target: T1, E. coli-expressed recombinant human GM-CSF (human, UniProt P04141 18-144); experiment: sandwich ELISA
[2] = target: T2, E. coli-expressed recombinant human IL-13 (human, UniProt P35225 35-146); experiment: cell-based or functional assay
[3] = target: T3, E. coli-expressed recombinant cynomolgus IL-13 (cynomolgus, UniProt Q5I6E4 21-132 (Macaca thibetana entry)); experiment: cell-based or functional assay
T3 chain: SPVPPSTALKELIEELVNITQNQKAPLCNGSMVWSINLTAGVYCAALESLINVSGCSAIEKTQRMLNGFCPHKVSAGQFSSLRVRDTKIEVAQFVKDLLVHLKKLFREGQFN

[4] = target: E. coli-expressed recombinant Q130 human IL-13 (human, UniProt P35225 35-146, limits assumed); experiment: cell-based or functional assay
[5] = target: mammalian-expressed (CHO cell) human IL-13 (human, UniProt P35225 35-146, limits assumed); experiment: cell-based or functional assay
[6] = target: T4, E. coli-expressed recombinant human IL-4 (human, UniProt P05112 25-153); experiment: human IL-4 binding sandwich ELISA
T4 sequence (looked up): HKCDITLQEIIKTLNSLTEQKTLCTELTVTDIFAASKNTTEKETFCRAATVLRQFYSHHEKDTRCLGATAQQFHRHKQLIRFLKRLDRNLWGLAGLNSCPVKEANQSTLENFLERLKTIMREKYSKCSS

[7] = target: T2, E. coli-expressed recombinant human …; experiment: human IL-13 binding sandwich ELISA
[8] = target: T3, E. coli-expressed recombinant …; experiment: cynomolgus IL-13 binding sandwich ELISA
[9] = target: T2, E. coli-expressed recombinant human …; experiment: BIAcore analysis 1, antibody captured, IL-13 in solution
Method: (§1) Completed for both human and cynomolgus IL-13 (E. coli-expressed protein). The quoted KD values are the average from 5 different IL-13 concentration curves (done in triplicate). Note that mass transfer issues were apparent in this analysis and that a modified experimental protocol (to correct for this issue) has been completed in analysis 4 (where no mass transfer issues were present).
(§2) The kinetics analysis was performed on a Biacore 3000 machine, using an antibody capture method. Briefly, for the chimeric 6A1 and humanised antibody constructs Protein A capture was used, whilst for the parental murine 6A1 antibody, capture was by a anti-mouse Fc antibody supplied by Biacore. Briefly, the method is as follows, the capture ligand was immobilised to a CM5 Biosensor chip by primary amine coupling in accordance with Biacore standard protocols and using the reagents supplied in Biacores' primary amine coupling kit. The method involves activation CM5 sensor surface by passing a solution of 50 mM N-hydroxy-succinimide (NHS) and 200 mM N-ethyl-N′-dimethylaminopropyl […] (EDC) over the surface. Then, the capture ligand (dissolved in acetate buffer pH5 or pH4.5) was coupled to the activated sensor surface after which any still activated esters were blocked by an injection of 1M ethanolamine hydrochloride, pH8.5.
(§3) The candidate antibody was then passed over the Protein A or anti-mouse Fc antibody surface, depending on whether it was human or mouse in origin and captured. Once a stable binding signal was seen IL13 was passed over the captured antibody surface at various defined concentrations. The subsequent binding curves were analysed with Biacore analysis software BIAeval v4.1 to determine kinetics. The experiments were carried out using Biacore HBS-EP buffer.

[10] = target: T3, E. coli-expressed recombinant …; experiment: as above
Method: as §1, §2, §3

[11] = target: T5, native (PBMC derived) human IL-13 (human, UniProt P35225 35-146, limits assumed); experiment: ELISA on Th2 cell supernatant read against a standard curve
T5 construct: IL-13 in supernatant of stimulated human CD4+ Th2 cells; also called native human IL-13; Native IL-13

[12] = target: T6, 16mer biotinylated human IL-13 peptide number 24 (human, N-terminal biotin; C-terminal amide); experiment: BIAcore analysis 3, antibody over biotinylated peptide on SA chip
T6 construct: format Biotin-SGSG-PEPTIDE-amide; also called Peptide 24
T6 peptide: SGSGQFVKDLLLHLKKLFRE
Method: Completed for the 16mer biotinylated human IL-13 peptide number 24 (identified as the linear binding epitope for parental mAb 6A1, see section 6.7). Note that the absolute KD values obtained for binding to peptide ligands are often quite different to those seen for binding to whole protein targets.
The kinetics analysis was performed on a Biacore 3000 machine using direct binding of antibody to immobilised IL-13 peptide. Briefly, IL-13 biotinylated peptide was captured using a Biacore SA (strepavidin) Biosensor chip. The antibodies were then passed over the sensor surface at various concentrations. The subsequent binding curves were analysed with Biacore analysis software BIAeval 4.1 to determine kinetics. The experiment was carried out using Biacore HBS-EP buffer

[13] = target: T2, E. coli-expressed recombinant human …; experiment: BIAcore analysis 4, antibody captured on Protein A, IL-13 in solution
Method: (§4) Completed for both human and cynomolgus IL-13 (E. coli-expressed protein). The quoted KD values are the average from 5 different IL-13 concentration curves (done in triplicate).
as §2, §3

[14] = target: T3, E. coli-expressed recombinant …; experiment: as above
Method: as §4, §2, §3

[15] = target: T7, E. coli-expressed recombinant det-1 tagged human IL-13 (human, UniProt P35225 35-146); experiment: competition ELISA: inhibition of det-1 tagged human IL-13 binding to human IL-13Rα1-Fc
T7 construct: also called Det-1 tagged human IL-13 (made in-house); not shown: det-1 tag

[16] = target: T7, E. coli-expressed recombinant det-1 …; experiment: competition ELISA: inhibition of det-1 tagged human IL-13 binding to human IL-13Rα2-Fc
[17] = target: T4, E. coli-expressed recombinant human IL-4; experiment: binding ELISA
[18] = target: T1, E. coli-expressed recombinant human …; experiment: binding ELISA
[19] = target: T2, E. coli-expressed recombinant human …; experiment: human IL-13 binding ELISA, CHO supernatant
[20] = target: T2, E. coli-expressed recombinant human …; experiment: sandwich ELISA

T2 sequence (P35225 other isoform, or with tags, fused parts or gaps): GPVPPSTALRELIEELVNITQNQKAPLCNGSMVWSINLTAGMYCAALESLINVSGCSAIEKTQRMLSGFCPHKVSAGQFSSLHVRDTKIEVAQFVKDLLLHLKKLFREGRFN
T7 sequence (P35225 other isoform, or with tags, fused parts or gaps): as above
T1 sequence (P04141 18-144 limits assumed): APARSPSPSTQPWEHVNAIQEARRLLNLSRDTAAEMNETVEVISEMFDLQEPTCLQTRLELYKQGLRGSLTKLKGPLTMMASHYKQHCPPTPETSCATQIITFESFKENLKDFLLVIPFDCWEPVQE
mammalian-expressed (CHO cell) human IL-13, sequence (P35225 other isoform, or with tags, fused parts or gaps limits assumed): as the sequence (P35225 other isoform, or with tags, fused parts or gaps) above
T5 sequence (P35225 other isoform, or with tags, fused parts or gaps limits assumed): as the sequence (P35225 other isoform, or with tags, fused parts or gaps) above
E. coli-expressed recombinant Q130 human IL-13, sequence (P35225 35-146 limits assumed): as the sequence (P35225 other isoform, or with tags, fused parts or gaps) above, with R110Q counted along it

B1: chimaeric 6A1 (antibody, human IgG1, V domains shown)
VH: EIQLQQSVAELVRPGASVRLSCTASGFYIKDTYMHWVIQRPEQGLEWIGTIDPANGNTKYVPKFQGKATITADTSSNTAYLRLSSLTSEDTAIYYCARSIYDDYHYDDYYAMDYWGQGTSVTVSS
VL: DVLMTQTPLSLPVSLGDQASISCRSSQNIVHINGNTYLEWYLQKPGQSPKLLIYKISDRFSGVPDRFSGSGSGTDFTLKISRVEAEDLGVYYCFQGSHVPWTFGGGTKLEIK
notes: Parent murine 6A1 V regions on human IgG1/k wild type C regions, expressed in CHO cells; also called 6A1c; 6A1 chimaeric antibody
B1 was tested, and the binding result [1] was “no binding”, the “Mean ND50 for 2 assays” value [2] was 0.119 µg/mL and the “Mean ND50 for 2 assays” value [3] was 0.059 µg/mL. The “Mean ND50 for 2 assays” value [4] was 0.128 µg/mL, the “Mean ND50 for 2 assays” value [5] was 0.285 µg/mL and the binding result [6] was “no binding”. For the same binder, the EC50 [7] was 0.015 µg/mL, the EC50 [8] was 0.018 µg/mL and the Kd [9] was 0.043 nM. It also gave a koff [9] of 2e-05 s⁻¹, a kon [9] of 464000 M⁻¹ s⁻¹ and a Kd [10] of 0.055 nM. The koff [10] was 3.27e-05 s⁻¹, the kon [10] was 592000 M⁻¹ s⁻¹ and the “Native IL-13 (ng/ml) detected in Th2 supernatant” value [11] was 19.6 ng/mL. The Kd [12] was 3.58 nM, the koff [12] was 0.000919 s⁻¹ and the kon [12] was 257000 M⁻¹ s⁻¹. The Kd [13] was 0.038 nM, the koff [13] was 4e-05 s⁻¹ and the kon [13] was 1.05e+06 M⁻¹ s⁻¹. The Kd [14] was 0.03 nM, the koff [14] was 2.65e-05 s⁻¹ and the kon [14] was 885000 M⁻¹ s⁻¹. For the same binder, the IC50 [15] was 0.034 µg/mL and the IC50 [16] was 0.04 µg/mL.

B2: L2+A1 (antibody, human IgG1, kappa, V domains shown)
VH: QVQLVQSGAEVKKPGSSVKVSCKASGFYIKDTYMHWVRQAPGQGLEWMGTIDPANGNTKYVPKFQGRVTITADESTSTAYMELSSLRSEDTAVYYCARSIYDDYHYDDYYAMDYWGQGTLVTVSS
VL: DIVMTQSPLSLPVTPGEPASISCRSSQNIVHINGNTYLEWYLQKPGQSPRLLIYKISDRFSGVPDRFSGSGSGTDFTLKISRVEADDVGVYYCFQGSHVPWTFGQGTKLEIKR
notes: Humanised 6A1, VH construct A1 and VL construct L2; also called A1L2
With B2 the binding result [17] was “no binding (tested: 30 µg/ml)”, the binding result [18] was “no binding (tested: 30 µg/ml)” and the “Mean ND50 for 2 assays” value [2] was 0.608 µg/mL. The “Mean ND50 for 2 assays” value [3] was 0.12 µg/mL, the “Mean ND50 for 2 assays” value [4] was 0.705 µg/mL and the “Mean ND50 for 2 assays” value [5] was 1.2 µg/mL. For the same binder, the EC50 [7] was 0.024 µg/mL, the EC50 [8] was 0.028 µg/mL and the Kd [9] was 0.31 nM. It also gave a koff [9] of 0.000156 s⁻¹, a kon [9] of 507000 M⁻¹ s⁻¹ and a Kd [10] of 0.097 nM. For the same binder, the koff [10] was 5.58e-05 s⁻¹, the kon [10] was 577000 M⁻¹ s⁻¹ and the “Native IL-13 (ng/ml) detected in Th2 supernatant” value [11] was 22.7 ng/mL. The Kd [12] was 9.35 nM, the koff [12] was 0.00167 s⁻¹ and the kon [12] was 179000 M⁻¹ s⁻¹. It also gave a Kd [13] of 0.153 nM, a koff [13] of 0.000139 s⁻¹ and a kon [13] of 907000 M⁻¹ s⁻¹. For the same binder, the Kd [14] was 0.055 nM, the koff [14] was 4.25e-05 s⁻¹ and the kon [14] was 772000 M⁻¹ s⁻¹. For the same binder, the IC50 [15] was 0.056 µg/mL and the IC50 [16] was 0.117 µg/mL.

B3: A2L1 (antibody, human IgG1, kappa, V domains shown)
VH: QVQLVQSGAEVKKPGSSVKVSCKASGFYIKDTYMHWVIQAPGQGLEWMGTIDPANGNTKYVPKFQGRVTITADESTSTAYMELSSLRSEDTAVYYCARSIYDDYHYDDYYAMDYWGQGTLVTVSS
VL: DIVMTQSPLSLPVTPGEPASISCRSSQNIVHINGNTYLEWYLQKPGQSPRLLIYKISDRFSGVPDRFSGSGSGTDFTLKISRVEADDVGIYYCFQGSHVPWTFGQGTKLEIKR
notes: Humanised 6A1 combination, tested as CHO cell supernatant
B3: binds [19].

B4: A4L2 (antibody, human IgG1, kappa, V domains shown)
VH: QVQLVQSGAEVKKPGSSVRVSCKASGFYIKDTYMHWVIQAPGQGLEWMGTIDPANGNTKYVPKFQGRVTITADTSTSTAYMRLSSLRSEDTAVYYCARSIYDDYHYDDYYAMDYWGQGTLVTVSS
VL: DIVMTQSPLSLPVTPGEPASISCRSSQNIVHINGNTYLEWYLQKPGQSPRLLIYKISDRFSGVPDRFSGSGSGTDFTLKISRVEADDVGVYYCFQGSHVPWTFGQGTKLEIKR
notes: as for B3
B4: binds [20].

B5: A2L2 (antibody, human IgG1, kappa, V domains shown)
VH: QVQLVQSGAEVKKPGSSVKVSCKASGFYIKDTYMHWVIQAPGQGLEWMGTIDPANGNTKYVPKFQGRVTITADESTSTAYMELSSLRSEDTAVYYCARSIYDDYHYDDYYAMDYWGQGTLVTVSS
VL: DIVMTQSPLSLPVTPGEPASISCRSSQNIVHINGNTYLEWYLQKPGQSPRLLIYKISDRFSGVPDRFSGSGSGTDFTLKISRVEADDVGVYYCFQGSHVPWTFGQGTKLEIKR
notes: as for B3
B5: binds [19].

B6: A3L1 (antibody, human IgG1, kappa, V domains shown)
VH: QVQLVQSGAEVKKPGSSVKVSCKASGFYIKDTYMHWVIQAPGQGLEWMGTIDPANGNTKYVPKFQGRVTITADTSTSTAYMELSSLRSEDTAVYYCARSIYDDYHYDDYYAMDYWGQGTLVTVSS
VL: DIVMTQSPLSLPVTPGEPASISCRSSQNIVHINGNTYLEWYLQKPGQSPRLLIYKISDRFSGVPDRFSGSGSGTDFTLKISRVEADDVGIYYCFQGSHVPWTFGQGTKLEIKR
notes: as for B3
B6: binds [19].

B7: A3L2 (antibody, human IgG1, kappa, V domains shown)
VH: QVQLVQSGAEVKKPGSSVKVSCKASGFYIKDTYMHWVIQAPGQGLEWMGTIDPANGNTKYVPKFQGRVTITADTSTSTAYMELSSLRSEDTAVYYCARSIYDDYHYDDYYAMDYWGQGTLVTVSS
VL: DIVMTQSPLSLPVTPGEPASISCRSSQNIVHINGNTYLEWYLQKPGQSPRLLIYKISDRFSGVPDRFSGSGSGTDFTLKISRVEADDVGVYYCFQGSHVPWTFGQGTKLEIKR
notes: as for B3
B7: binds [19].

B8: A4L1 (antibody, human IgG1, kappa, V domains shown)
VH: QVQLVQSGAEVKKPGSSVRVSCKASGFYIKDTYMHWVIQAPGQGLEWMGTIDPANGNTKYVPKFQGRVTITADTSTSTAYMRLSSLRSEDTAVYYCARSIYDDYHYDDYYAMDYWGQGTLVTVSS
VL: DIVMTQSPLSLPVTPGEPASISCRSSQNIVHINGNTYLEWYLQKPGQSPRLLIYKISDRFSGVPDRFSGSGSGTDFTLKISRVEADDVGIYYCFQGSHVPWTFGQGTKLEIKR
notes: as for B3
B8: binds [20].
